# Data as given in publication PMC11480844 (2024).
# B1: H2-Kb / Ed39 (parent complex)
# chain 1: GEQVEQRPPHLSVREGDSAVIICTYTDPNSYYFFWYKQEPGAGLQLLMKVFSSTEINEGQGFTVLLNKKDKQLSLNLTAAHPGDSAVYFCATMSNYNVLYFGSGTKLTVEP
# chain 2: GALVYQYPRRTICKSGTSMRMECQAVGFQATSVAWYRQSPQKTFELIALSTVNSAIKYEQNFTQEKFPISHPNLSFSSMTVLNAYLEDRGLYLCGARDGSYEQYFGPGTRLTVL
# chain 3: not shown
# chain 4: IQKTPQIQVYSRHPPENGKPNILNCYVTQFHPPHIEIQMLKNGKKIPKVEMSDMSFSKDWSFYILAHTEFTPTETDTYACRVKHDSMAEPKTVYWDRDM
# chain 5: SIINFEKL
# B2: H2-Kb / Ed8 (parent complex)
# chain 1: AQSVTQPDARVTVSEGASLQLRCKYSYFGTPYLFWYVQYPRQGLQLLLKYYPGDPVVQGVNGFEAEFSKSNSSFHLRKASVHWSDWAVYFCAVSPGSGGKLTLGAGTRLQVNL
# chain 2: DSGVVQSPRHIIKEKGGRSVLTCIPISGHSNVVWYQQTLGKELKFLIQHYEKVERDKGFLPSRFSVQQFDDYHSEMNMSALELEDSAMYFCASSPRASNYTFGSGTRLLVI
# chain 3: not shown
# chain 4: B1 chain 4
# chain 5: SIINFEKL
# Variants of: B1
# Assay: % of reporter cells activated (NFAT-GFP), raw
# Also: test concentration or dose not given here.
row,ratio to parent,Variant
1,0.259,chain 5 F5E
2,0.973,chain 5 F5A
3,0.821,chain 5 F5V
4,0.358,chain 5 F5D
5,1.01,chain 5 F5M
6,0.622,chain 5 F5I
7,0.112,chain 5 K7A
8,0.408,chain 5 K7L
9,0.0761,chain 5 K7F
10,0.0214,chain 5 K7I
11,0.0124,chain 5 E6C
12,0.00443,chain 5 E6R
13,0.00523,chain 5 E6N
14,0.0117,chain 5 E6Y
15,0.265,chain 5 E6D
16,0.034,chain 5 E6T
17,0.0946,chain 5 E6Q
18,0.0073,chain 5 E6A
19,0.0355,chain 5 E6H
20,0.00482,chain 5 E6I

row,ratio to parent,Variant
1,0.293,chain 5 I3P
2,0.431,chain 5 I3C
3,0.314,chain 5 I3N
4,0.0638,chain 5 I3R
5,0.0488,chain 5 I3F
6,0.956,chain 5 I3V
7,0.0404,chain 5 I3Y
8,0.402,chain 5 I3D
9,0.00365,chain 5 S1D
10,0.0621,chain 5 S1C
11,0.00347,chain 5 S1Q
12,0.0073,chain 5 S1A
13,0.00457,chain 5 S1T
14,0.00392,chain 5 S1E
15,0.0114,chain 5 S1W
16,0.00622,chain 5 S1P
17,0.0192,chain 5 N4C
18,0.0498,chain 5 N4K
19,0.0203,chain 5 N4Y
20,0.00191,chain 5 N4V

row,ratio to parent,Variant
1,0.196,chain 5 N4L
2,0.127,chain 5 N4W
3,0.0741,chain 5 N4S
4,0.174,chain 5 N4P
5,0.00203,chain 5 N4T
6,0.361,chain 5 L8E
7,0.617,chain 5 L8Q
8,0.425,chain 5 L8D
9,0.485,chain 5 L8K
10,0.884,chain 5 L8N
11,0.468,chain 5 L8W
12,0.453,chain 5 L8P
13,0.244,chain 5 I2H
14,0.954,chain 5 I2A
15,0.612,chain 5 I2D
16,0.366,chain 5 I2Q
17,0.284,chain 5 I2Y
18,0.593,chain 5 I2R
19,1.09,chain 5 I2V

# Variants of: B2
# Assay: % of reporter cells activated (NFAT-GFP), raw
row,ratio to parent,Variant
1,0.00371,chain 5 E6I
2,0.0522,chain 5 E6L
3,0.127,chain 5 E6T
4,1.04,chain 5 E6G
5,0.349,chain 5 E6S
6,0.733,chain 5 E6N
7,1.13,chain 5 E6D
8,0.573,chain 5 E6H
9,0.0912,chain 5 E6F
10,0.27,chain 5 E6P
11,1.14,chain 5 E6K
12,0.777,chain 5 E6Q
13,0.932,chain 5 F5E
14,1.21,chain 5 F5S
15,1.02,chain 5 F5K
16,1.25,chain 5 F5M
17,1.19,chain 5 F5R
18,0.895,chain 5 F5I
19,1.24,chain 5 F5A
20,1.1,chain 5 F5N
21,1.04,chain 5 F5Q
22,1.34,chain 5 F5Y
23,1.23,chain 5 F5H

row,ratio to parent,Variant
1,1.1,chain 5 L8T
2,1.05,chain 5 L8A
3,0.877,chain 5 L8V
4,1.16,chain 5 L8Y
5,1.21,chain 5 L8P
6,1.22,chain 5 L8H
7,0.95,chain 5 L8W
8,1.2,chain 5 L8G
9,1.04,chain 5 L8C
10,1.13,chain 5 L8M
11,0.945,chain 5 L8S
12,1.13,chain 5 L8Q
13,1.24,chain 5 L8R
14,0.853,chain 5 L8E
15,1.15,chain 5 L8K
16,1.06,chain 5 L8N
17,0.826,chain 5 K7W
18,0.958,chain 5 K7Y
19,0.0673,chain 5 K7D
20,0.326,chain 5 K7C
21,0.662,chain 5 K7Q
22,0.809,chain 5 K7N
23,0.648,chain 5 K7T

row,ratio to parent,Variant
1,0.643,chain 5 K7A
2,1.16,chain 5 K7R
3,0.821,chain 5 S1N
4,1.02,chain 5 S1K
5,0.983,chain 5 S1I
6,1.25,chain 5 S1F
7,1.28,chain 5 S1E
8,1.03,chain 5 S1C
9,1.3,chain 5 S1H
10,1.28,chain 5 S1A
11,0.799,chain 5 S1R
12,1.16,chain 5 S1Y
13,1.12,chain 5 S1D
14,1.03,chain 5 I3W
15,1.17,chain 5 I3D
16,1.17,chain 5 I3E
17,1.3,chain 5 I3S
18,0.98,chain 5 I3F
19,1.34,chain 5 I3T
20,0.813,chain 5 I3Y
21,1.32,chain 5 I3N
22,1.03,chain 5 I3K
23,1.02,chain 5 I3Q

row,ratio to parent,Variant
1,1.27,chain 5 I3M
2,1.27,chain 5 I3C
3,1.22,chain 5 I3G
4,1.26,chain 5 I3V
5,0.0175,chain 5 N4V
6,0.0721,chain 5 N4C
7,0.436,chain 5 N4D
8,0.0339,chain 5 N4G
9,0.721,chain 5 N4K
10,0.015,chain 5 N4F
11,0.00281,chain 5 N4M
12,0.469,chain 5 N4I
13,0.00468,chain 5 N4Y
14,1.4,chain 5 I2P
15,1.25,chain 5 I2F
16,1.37,chain 5 I2S
17,1.41,chain 5 I2A
18,1.41,chain 5 I2V
19,1.2,chain 5 I2M
20,1.43,chain 5 I2T
21,1.13,chain 5 I2H
22,1.3,chain 5 I2G
